Test system: GST-MMP-9
Test: GST pull-down assay with GST-tagged MMP-9
Format: binding, mouse
Conditions: presence or absence of bacterial lysate
Protocol: (A) GST-tagged MMP-9 was purified from the bacterial cells transformed by the expression vector, and immobilized to the anti-GST-beads to prepare MMP-9-GST beads. Purified CLU-HA was incubated with MMP-9-GST beads (M-GST) or GST-beads (GST) in the presence (+Lysate) or absence (−Lysate) of bacterial lysate, followed by washing the beads with binding buffer. Bound proteins were resolved on denaturing 8% SDS/PAGE gel for the immunoblotting with anti-HA antibody. CLU cDNA detected in the yeast two hybrid assay, which corresponds to the CLU coding sequence beginning at position 212 from the ATG site, was used to produce a protein band of approximately 40 KDa. (B) Gelatin (20 μg) and CLU (2 μg) were mixed and incubated in the presence or absence of active MMP-9, followed by denaturing 12% SDS/PAGE gel electrophoresis, which then was stained with Coomasie blue. Two subunits of CLU are designated as α and β.
The GST tagged MMP-9 constructs were generated by ligation of the pGB-MMP-9 EcoR I/Sal I inserts into the pGEX 4T vector (Amersham, Piscataway, N.J.). The pGEX 4T MMP-9 constructs were transformed into the E. Coli strain BL21(DE3) (Novagen, Gibbstown, N.J.) for expression. […]
To further confirm the interaction between MMP-9 and CLU that was detected by yeast two hybrid screening, we performed GST pull down assay using recombinant GST-tagged MMP-9 fusion protein. […]

GST-MMP-9, sequence (P41245 109-730 limits assumed): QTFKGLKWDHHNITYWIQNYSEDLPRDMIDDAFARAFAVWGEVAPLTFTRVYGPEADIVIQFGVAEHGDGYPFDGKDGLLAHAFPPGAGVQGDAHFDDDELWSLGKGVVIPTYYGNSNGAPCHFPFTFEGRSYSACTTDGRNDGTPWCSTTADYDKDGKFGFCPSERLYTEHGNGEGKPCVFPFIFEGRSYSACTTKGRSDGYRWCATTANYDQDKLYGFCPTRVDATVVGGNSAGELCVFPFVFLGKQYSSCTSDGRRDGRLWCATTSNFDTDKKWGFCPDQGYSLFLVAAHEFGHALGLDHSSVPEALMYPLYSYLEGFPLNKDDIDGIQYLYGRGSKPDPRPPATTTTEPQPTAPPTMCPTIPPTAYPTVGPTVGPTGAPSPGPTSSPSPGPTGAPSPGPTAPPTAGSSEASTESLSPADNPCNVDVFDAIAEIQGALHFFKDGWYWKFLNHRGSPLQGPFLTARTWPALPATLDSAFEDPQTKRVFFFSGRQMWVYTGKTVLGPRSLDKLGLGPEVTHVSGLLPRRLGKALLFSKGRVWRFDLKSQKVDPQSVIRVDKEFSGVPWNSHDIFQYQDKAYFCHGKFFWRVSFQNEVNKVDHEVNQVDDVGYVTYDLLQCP

B1: CLU: secreted disulfide-linked heterodimeric glycoprotein (70-80 KD); assays used recombinant mouse CLU with C-terminal (His)6 (protein, UniProt Q06890 22-448, looked up)
Clusterin: EQEVSDNELQELSTQGSRYINKEIQNAVQGVKHIKTLIEKTNAERKSLLNSLEEAKKKKEDALEDTRDSEMKLKAFPEVCNETMMALWEECKPCLKHTCMKFYARVCRSGSGLVGQQLEEFLNQSSPFYFWMNGDRIDSLLESDRQQSQVLDAMQDSFARASGIIDTLFQDRFFARELHDPHYFSPIGFPHKRPHFLYPKSRLVRSLMSPSHYGPPSFHNMFQPFFEMIHQAQQAMDVQLHSPAFQFPDVDFLREGEDDRTVCKEIRRNSTGCLKMKGQCEKCQEILSVDCSTNNPAQANLRQELNDSLQVAERLTEQYKELLQSFQSKMLNTSSLLEQLNDQFNWVSQLANLTQGEDKYYLRVSTVTTHSSDSEVPSRVTEVVVKLFDSDPITVVLPEEVSKDNPKFMDTVAEKALQEYRRKSRAE
modifications: C-terminal His6 tag
interaction of HA-tagged CLU with GST-MMP-9: still interacted even in the presence of the bacterial lysate

From patent publication US10398755B2, “Clusterin pharmaceuticals and treatment methods using the same” (UNIVERSITY OF SOUTHERN CALIFORNIA, priority 2009, dated 2019)
